Test results from patent US20260199522.

Target: purified C3b (Complement Technology, Inc. #A114), P01024
Sequence (P01024 whole entry, looked up): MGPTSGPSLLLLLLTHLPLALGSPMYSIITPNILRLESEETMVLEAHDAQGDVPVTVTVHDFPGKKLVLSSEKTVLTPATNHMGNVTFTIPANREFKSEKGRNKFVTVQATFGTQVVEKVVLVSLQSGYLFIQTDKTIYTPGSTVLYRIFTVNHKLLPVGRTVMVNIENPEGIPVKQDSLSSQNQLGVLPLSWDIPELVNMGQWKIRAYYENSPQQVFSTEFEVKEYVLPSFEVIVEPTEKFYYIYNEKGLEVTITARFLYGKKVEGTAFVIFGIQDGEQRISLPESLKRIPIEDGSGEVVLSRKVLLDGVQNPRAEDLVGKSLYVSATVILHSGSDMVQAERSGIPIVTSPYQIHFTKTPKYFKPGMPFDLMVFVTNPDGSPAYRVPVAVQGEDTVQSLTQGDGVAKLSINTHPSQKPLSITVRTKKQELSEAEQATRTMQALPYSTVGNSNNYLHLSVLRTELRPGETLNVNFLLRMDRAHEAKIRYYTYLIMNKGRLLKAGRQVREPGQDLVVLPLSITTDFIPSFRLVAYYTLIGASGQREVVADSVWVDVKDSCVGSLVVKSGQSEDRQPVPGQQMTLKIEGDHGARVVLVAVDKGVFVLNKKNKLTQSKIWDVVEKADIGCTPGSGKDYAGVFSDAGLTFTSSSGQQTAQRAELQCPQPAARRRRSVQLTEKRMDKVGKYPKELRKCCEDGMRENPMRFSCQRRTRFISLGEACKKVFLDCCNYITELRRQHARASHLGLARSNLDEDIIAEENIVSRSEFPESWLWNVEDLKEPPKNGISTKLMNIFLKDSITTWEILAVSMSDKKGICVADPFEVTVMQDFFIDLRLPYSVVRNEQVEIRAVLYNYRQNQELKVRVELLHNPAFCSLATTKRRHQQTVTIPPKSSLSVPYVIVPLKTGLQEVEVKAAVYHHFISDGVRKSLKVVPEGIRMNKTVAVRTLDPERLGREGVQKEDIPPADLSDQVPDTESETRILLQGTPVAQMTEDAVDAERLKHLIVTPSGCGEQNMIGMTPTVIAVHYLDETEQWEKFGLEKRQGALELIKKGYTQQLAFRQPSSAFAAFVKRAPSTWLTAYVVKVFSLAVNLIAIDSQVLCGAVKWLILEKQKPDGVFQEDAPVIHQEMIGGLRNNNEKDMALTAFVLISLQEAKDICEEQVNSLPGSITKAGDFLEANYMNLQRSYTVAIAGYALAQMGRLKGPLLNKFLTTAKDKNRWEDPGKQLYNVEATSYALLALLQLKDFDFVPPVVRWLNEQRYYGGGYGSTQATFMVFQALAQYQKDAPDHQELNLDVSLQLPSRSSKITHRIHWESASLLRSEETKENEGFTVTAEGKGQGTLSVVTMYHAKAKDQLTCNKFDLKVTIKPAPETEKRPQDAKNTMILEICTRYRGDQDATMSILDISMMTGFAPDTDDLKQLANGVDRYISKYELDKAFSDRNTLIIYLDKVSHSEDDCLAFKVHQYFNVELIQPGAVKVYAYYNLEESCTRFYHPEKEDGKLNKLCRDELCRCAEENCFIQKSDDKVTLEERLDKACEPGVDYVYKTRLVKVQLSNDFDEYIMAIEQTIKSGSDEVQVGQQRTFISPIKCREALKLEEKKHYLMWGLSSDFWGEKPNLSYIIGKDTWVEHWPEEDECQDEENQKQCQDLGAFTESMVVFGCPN

B1: human Complement Factor I (hCFI) expressed from the AAV-CFI-1.0 vector, secreted into cell media of transduced rabbit retinal explants (protein)
chain: KVTYTSQEDLVEKKCLAKKYTHLSCDKVFCQPWQRCIEGTCVCKLPYQCPKNGTAVCATNRRSFPTYCQQKSLECLHPGTKFLNNGTCTAEGKFSVSLKHGNTDSEGIVEVKLVDQDKTMFICKSSWSMREANVACLDLGFQQGADTQRRFKLSDLSINSTECLHVHCRGLETSLAECTFTKRRTMGYQDFADVVCYTQKADSPMDDFFQCVNGKYISQMKACDGINDCGDQSDELCCKACQGKGFHCKSGVCIPSQYQCNGEVDCITGEDEVGCAGFASVTQEETEILTADMDAERRRIKSLLPKLSCGVKNRMHIRRKRIVGGKRAQLGDLPWQVAIKDASGITCGGIYIGGCWILTAAHCLRASKTHRYQIWTTVVDWIHPDLKRIVIEYVDRIIFHENYNAGTYQNDIALIEMKKDGNKKDCELPRSIPACVPWSPYLFQPNDTCIVSGWGREKDNERVFSLQWGEVKLISNCSKFYGNRFYEKEMECAGTYDGSIDACKGDSGGPLVCMDANNVTYVWGVVSWGENCGKPEFPGVYTKVANYFDWISYHVGRPFISQYNV
- C3b cleavage assay (Western blot stained with anti-C3 antibody; appearance of iC3b 68 kDa and 43 kDa bands), in the presence of purified CFH: The iC3b 43 kDa polypeptide is present in all lanes containing cell media from rabbit explants transduced with AAV-CFI-1.0 package into either AAV2.7m8 or AAV2.5T-LSV1 capsid serotypes
